Tests used:
[1] = target: T1, His-tagged human Dpy-30 protein (full length) (human, UniProt Q9C005 1-99); assay: Ni-NTA pulldown of co-expressed proteins, GST western blot
T1 construct: range 1-99; also called His-Dpy-30; HDpy-30; not shown: His tag and vector-encoded residues of pET-28a

[2] = target: T2, His-tagged human Dpy-30 domain only (Dpy-30 45-99) (human, UniProt Q9C005 45-99); assay: as above
T2 construct: range 45-99; also called the Dpy-30 domain; Dpy-30 domain alone; not shown: His tag and vector-encoded residues of pET-28a
T2 sequence (Q9C005 45-99): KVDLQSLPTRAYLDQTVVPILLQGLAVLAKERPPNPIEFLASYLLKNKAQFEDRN

T1 sequence (Q9C005 whole entry): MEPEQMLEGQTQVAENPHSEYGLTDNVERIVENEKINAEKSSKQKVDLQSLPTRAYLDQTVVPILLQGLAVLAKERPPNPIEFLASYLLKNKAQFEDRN

binding result [1]: no binding
binding result [2]: no binding
B1: GST-tagged RSP3 280-316 with V300P mutation (other)
chain: PWLKEQAIGYLARGVVARRVPDKLVEDAAAALAANRS
notes: also called pRSP3V300P product; not shown: N-terminal GST tag (from pGEX-2T) and its junction
